{
  "source": "the supplement of paper PMC10567573",
  "parents": {"B1": {"name": "PPEF2 (parent)", "chain": "AFKAAALIQRWYRRYVARLEMRRR"}},
  "data": [
    {"variants_of": "B1", "assay": "protein stability index of a GFP-peptide fusion (GPS, HEK-293T) (PSI 1-6); higher = more stable", "details": "c terminus: a fixed tail appended", "values": [
      {"variant": "Y12V", "protein stability index": 2.07},
      {"variant": "R13Q", "protein stability index": 2.26},
      {"variant": "R13M", "protein stability index": 1.93},
      {"variant": "R13T", "protein stability index": 1.8},
      {"variant": "R13A", "protein stability index": 1.62},
      {"variant": "R13E", "protein stability index": 1.95},
      {"variant": "R13H", "protein stability index": 2.16},
      {"variant": "R13I", "protein stability index": 2.53},
      {"variant": "R13F", "protein stability index": 2.06},
      {"variant": "R13P", "protein stability index": 1.23},
      {"variant": "R13N", "protein stability index": 1.15},
      {"variant": "R13K", "protein stability index": 2.22},
      {"variant": "R13L", "protein stability index": 2.05},
      {"variant": "R14V", "protein stability index": 1.07},
      {"variant": "R14E", "protein stability index": 2.32},
      {"variant": "R14K", "protein stability index": 3},
      {"variant": "R14I", "protein stability index": 1.84},
      {"variant": "R14Y", "protein stability index": 1.79},
      {"variant": "R14L", "protein stability index": 1.84},
      {"variant": "R14M", "protein stability index": 2.2},
      {"variant": "R14A", "protein stability index": 2.17},
      {"variant": "R14T", "protein stability index": 2.49},
      {"variant": "R14P", "protein stability index": 1.59},
      {"variant": "R14H", "protein stability index": 2.42},
      {"variant": "R14N", "protein stability index": 2.83},
      {"variant": "R14F", "protein stability index": 2.29},
      {"variant": "R14D", "protein stability index": 1.66},
      {"variant": "R14Q", "protein stability index": 2.74},
      {"variant": "Y15H", "protein stability index": 4.56},
      {"variant": "Y15P", "protein stability index": 1.89},
      {"variant": "Y15W", "protein stability index": 3.61},
      {"variant": "Y15R", "protein stability index": 4.11},
      {"variant": "Y15A", "protein stability index": 4.61},
      {"variant": "Y15T", "protein stability index": 4.46},
      {"variant": "Y15V", "protein stability index": 4.4},
      {"variant": "Y15L", "protein stability index": 3.82},
      {"variant": "Y15N", "protein stability index": 5.1},
      {"variant": "Y15E", "protein stability index": 3.89},
      {"variant": "Y15M", "protein stability index": 5.14},
      {"variant": "Y15D", "protein stability index": 1.87},
      {"variant": "Y15Q", "protein stability index": 4.44},
      {"variant": "Y15C", "protein stability index": 4.6},
      {"variant": "Y15F", "protein stability index": 3.39},
      {"variant": "Y15G", "protein stability index": 1.93},
      {"variant": "V16R", "protein stability index": 5.4},
      {"variant": "V16I", "protein stability index": 3.94},
      {"variant": "V16E", "protein stability index": 2.13},
      {"variant": "V16F", "protein stability index": 3.25},
      {"variant": "V16S", "protein stability index": 4.23},
      {"variant": "V16P", "protein stability index": 1.92},
      {"variant": "V16N", "protein stability index": 3.02},
      {"variant": "V16C", "protein stability index": 3.05},
      {"variant": "V16Y", "protein stability index": 2.96},
      {"variant": "V16L", "protein stability index": 4},
      {"variant": "V16H", "protein stability index": 3.66},
      {"variant": "V16M", "protein stability index": 4.45},
      {"variant": "V16A", "protein stability index": 3.94},
      {"variant": "V16K", "protein stability index": 4.73},
      {"variant": "V16T", "protein stability index": 3.53},
      {"variant": "V16W", "protein stability index": 2.32},
      {"variant": "R23I", "protein stability index": 2.13},
      {"variant": "R23S", "protein stability index": 1.65},
      {"variant": "R23E", "protein stability index": 2.44},
      {"variant": "R23A", "protein stability index": 2.81},
      {"variant": "R23L", "protein stability index": 2.48},
      {"variant": "R23K", "protein stability index": 3.58},
      {"variant": "R23T", "protein stability index": 2.25},
      {"variant": "R23P", "protein stability index": 2.36},
      {"variant": "R23W", "protein stability index": 1.98},
      {"variant": "R23G", "protein stability index": 2.61},
      {"variant": "R23C", "protein stability index": 3.14},
      {"variant": "R23Y", "protein stability index": 1.58},
      {"variant": "R23M", "protein stability index": 1.94},
      {"variant": "R23H", "protein stability index": 2.26},
      {"variant": "A17I", "protein stability index": 2.96},
      {"variant": "A17T", "protein stability index": 3.34},
      {"variant": "A17H", "protein stability index": 2.63},
      {"variant": "A17P", "protein stability index": 2.09},
      {"variant": "A17W", "protein stability index": 2.66},
      {"variant": "A17D", "protein stability index": 2.33},
      {"variant": "A17Q", "protein stability index": 3.62},
      {"variant": "A17V", "protein stability index": 3.84},
      {"variant": "A17L", "protein stability index": 3.75},
      {"variant": "A17F", "protein stability index": 2.6},
      {"variant": "A17N", "protein stability index": 3.84},
      {"variant": "A17E", "protein stability index": 3.13},
      {"variant": "A17K", "protein stability index": 3.57},
      {"variant": "A17C", "protein stability index": 2.53},
      {"variant": "A17S", "protein stability index": 3.2},
      {"variant": "A17Y", "protein stability index": 2.76},
      {"variant": "A17G", "protein stability index": 3.96},
      {"variant": "A17R", "protein stability index": 3.67},
      {"variant": "L19N", "protein stability index": 3.12},
      {"variant": "L19T", "protein stability index": 4.63},
      {"variant": "L19K", "protein stability index": 4.7},
      {"variant": "L19Y", "protein stability index": 2.03},
      {"variant": "L19H", "protein stability index": 3.33},
      {"variant": "L19I", "protein stability index": 3.64},
      {"variant": "L19P", "protein stability index": 3.63},
      {"variant": "L19Q", "protein stability index": 3.87},
      {"variant": "L19W", "protein stability index": 2.13},
      {"variant": "L19F", "protein stability index": 2.45},
      {"variant": "L19V", "protein stability index": 3.42},
      {"variant": "L19S", "protein stability index": 4.1},
      {"variant": "L19C", "protein stability index": 2.48},
      {"variant": "R24A", "protein stability index": 3.72},
      {"variant": "R24C", "protein stability index": 1.97},
      {"variant": "E20N", "protein stability index": 4.16},
      {"variant": "E20I", "protein stability index": 2.63},
      {"variant": "E20P", "protein stability index": 3.41},
      {"variant": "E20G", "protein stability index": 3.31},
      {"variant": "E20T", "protein stability index": 2.65},
      {"variant": "E20D", "protein stability index": 3.02},
      {"variant": "E20F", "protein stability index": 3.06},
      {"variant": "E20L", "protein stability index": 2.69},
      {"variant": "E20V", "protein stability index": 2.32},
      {"variant": "E20H", "protein stability index": 3.46},
      {"variant": "E20S", "protein stability index": 3.65},
      {"variant": "E20W", "protein stability index": 4.21},
      {"variant": "E20Q", "protein stability index": 4.2},
      {"variant": "E20Y", "protein stability index": 3.25},
      {"variant": "E20M", "protein stability index": 2.39},
      {"variant": "M21I", "protein stability index": 3.54},
      {"variant": "M21V", "protein stability index": 3.7},
      {"variant": "M21Y", "protein stability index": 3.42},
      {"variant": "M21A", "protein stability index": 2.44},
      {"variant": "M21T", "protein stability index": 3.06},
      {"variant": "M21Q", "protein stability index": 4.15},
      {"variant": "M21P", "protein stability index": 2.18},
      {"variant": "M21H", "protein stability index": 3.83},
      {"variant": "M21S", "protein stability index": 2.11},
      {"variant": "M21N", "protein stability index": 3.3},
      {"variant": "M21R", "protein stability index": 2.36},
      {"variant": "M21L", "protein stability index": 3.39},
      {"variant": "M21E", "protein stability index": 4.73},
      {"variant": "M21K", "protein stability index": 2.69},
      {"variant": "M21D", "protein stability index": 2.98},
      {"variant": "M21F", "protein stability index": 3.32},
      {"variant": "M21C", "protein stability index": 3.34},
      {"variant": "R18T", "protein stability index": 2.41},
      {"variant": "R18A", "protein stability index": 2.12},
      {"variant": "R18F", "protein stability index": 3.27},
      {"variant": "R18Y", "protein stability index": 3.1},
      {"variant": "R18D", "protein stability index": 1.66},
      {"variant": "R18I", "protein stability index": 2.06},
      {"variant": "R18N", "protein stability index": 2.71},
      {"variant": "R18C", "protein stability index": 2.25},
      {"variant": "R18K", "protein stability index": 2.54},
      {"variant": "R18P", "protein stability index": 2.09},
      {"variant": "R18E", "protein stability index": 1.96},
      {"variant": "R18G", "protein stability index": 1.95},
      {"variant": "R18W", "protein stability index": 2.77},
      {"variant": "R18M", "protein stability index": 1.45},
      {"variant": "R22P", "protein stability index": 1.52},
      {"variant": "R22D", "protein stability index": 2.24},
      {"variant": "R22M", "protein stability index": 1.75},
      {"variant": "R22W", "protein stability index": 2.52},
      {"variant": "R22I", "protein stability index": 1.89},
      {"variant": "R22Y", "protein stability index": 2.42},
      {"variant": "R22Q", "protein stability index": 2.74},
      {"variant": "R22N", "protein stability index": 3.83},
      {"variant": "R22V", "protein stability index": 1.66},
      {"variant": "R22F", "protein stability index": 2.32},
      {"variant": "R22S", "protein stability index": 2.68},
      {"variant": "R22C", "protein stability index": 2.01},
      {"variant": "R22T", "protein stability index": 3.82},
      {"variant": "R22L", "protein stability index": 3.12}
    ]}
  ]
}
